Data: patent US9993536B2, “Peptides and combination of peptides and scaffolds for use in immunotherapy against renal cell carcinoma (RCC) and other cancers” (immatics biotechnologies GmbH, priority 2015, dated 2018)

Each substance was assayed against HLA-A*02:01 (Homo sapiens, UniProt P04439, D140Y/D185E/D98H/E176V/E277Q/G131W/G231S/I119V/I121R/I166T/I218V/L300P/L318F/N151K/N90K/P208A/P217A/Q86G/Q94H/R138H/R169H/T345S) (assay: MHC binding assay (UV-ligand exchange, beta2m ELISA)). Settings: peptide exchange yield, HLA-A*02:01, UV-ligand exchange.
Source text: Candidate peptides for T cell based therapies according to the present invention were further tested for their MHC binding capacity (affinity). The individual peptide-MHC complexes were produced by UV-ligand exchange, where a UV-sensitive peptide is cleaved upon UV-irradiation, and exchanged with the peptide of interest as analyzed. Only peptide candidates that can effectively bind and stabilize the peptide-receptive MHC molecules prevent dissociation of the MHC complexes. To determine the yield of the exchange reaction, an ELISA was performed based on the detection of the light chain (β2m) of stabilized MHC complexes. The assay was performed as generally described in Rodenko et al. (Rodenko et al., 2006).
96 well MAXISorp plates (NUNC) were coated over night with 2 ug/ml streptavidin in PBS at room temperature, washed 4× and blocked for 1 h at 37° C. in 2% BSA containing blocking buffer. Refolded HLA-A*02:01/MLA-001 monomers served as standards, covering the range of 15-500 ng/ml. Peptide-MHC monomers of the UV-exchange reaction were diluted 100 fold in blocking buffer. Samples were incubated for 1 h at 37° C., washed four times, incubated with 2 ug/ml HRP conjugated anti-β2m for 1 h at 37° C., washed again and detected with TMB solution that is stopped with […]. Absorption was measured at 450 nm. Candidate peptides that show a high exchange yield (preferably higher than 50%, most preferred higher than 75%) are generally preferred for a generation and production of antibodies or fragments thereof, and/or T cell receptors or fragments thereof, as they show sufficient avidity to the MHC molecules and prevent dissociation of the MHC complexes.
With “4 (FLSQDIITV; listed as Homo sapiens) [compound 4]” the “Peptide exchange (MHC class I binding score)” value (from here on “Peptide exchange”) was “+++ (≥50 = +++)”. For “5 (YLYPNLTRL; listed as Homo sapiens) [compound 5]”, the “Peptide exchange” value was “++ (≥20% = ++)”. With “8 (GLASFKSFL; listed as Homo sapiens) [compound 8]” the “Peptide exchange” value was “++ (≥20% = ++)”. With “10 (KLLQNNYGL; listed as Homo sapiens) [compound 10]” the “Peptide exchange” value was “++ (≥20% = ++)”. For “11 (FIQTEAPKEV; listed as Homo sapiens) [compound 11]”, the “Peptide exchange” value was “++ (≥20% = ++)”. For “12 (ALDPSGNQLI; listed as Homo sapiens) [compound 12]”, the “Peptide exchange” value was “++ (≥20% = ++)”. “13 (KIMAQILTV; listed as Homo sapiens) [compound 13]” was tested, and the “Peptide exchange” value was “+++ (≥50 = +++)”. For “14 (ALLTETIFL; listed as Homo sapiens) [compound 14]”, the “Peptide exchange” value was “++ (≥20% = ++)”. With “17 (ILAQQVHAL; listed as Homo sapiens) [compound 17]” the “Peptide exchange” value was “+++ (≥50 = +++)”. With “18 (YVLDLAAKV; listed as Homo sapiens) [compound 18]” the “Peptide exchange” value was “+++ (≥50 = +++)”. For “19 (LLDPGSLQL; listed as Homo sapiens) [compound 19]”, the “Peptide exchange” value was “++ (≥20% = ++)”. With “21 (RLIQGDQILSV; listed as Homo sapiens) [compound 21]” the “Peptide exchange” value was “++ (≥20% = ++)”. With “22 (FLSPPLPSV; listed as Homo sapiens) [compound 22]” the “Peptide exchange” value was “+++ (≥50 = +++)”. With “23 (YIQEVVQYI; listed as Homo sapiens) [compound 23]” the “Peptide exchange” value was “+++ (≥50 = +++)”. In the case of “24 (FTLGTTVFL; listed as Homo sapiens) [compound 24]”, the “Peptide exchange” value is reported as “+++ (≥50 = +++)”. With “25 (LLVPAHLVAA; listed as Homo sapiens) [compound 25]” the “Peptide exchange” value was “++ (≥20% = ++)”. For “27 (SLSDLLVSL; listed as Homo sapiens) [compound 27]”, the “Peptide exchange” value was “+++ (≥50 = +++)”. With “28 (FIADLVVGL; listed as Homo sapiens) [compound 28]” the “Peptide exchange” value was “++ (≥20% = ++)”. In the case of “30 (QLFYTKIFL; listed as Homo sapiens) [compound 30]”, the “Peptide exchange” value is reported as “++ (≥20% = ++)”. “31 (VLFGLDPAVIKV; listed as Homo sapiens) [compound 31]” was tested, and the “Peptide exchange” value was “+++ (≥50 = +++)”. “33 (FIADVVEKI; listed as Homo sapiens) [compound 33]” was tested, and the “Peptide exchange” value was “++ (≥20% = ++)”. “34 (ELNNQNFYL; listed as Homo sapiens) [compound 34]” was tested, and the “Peptide exchange” value was “+++ (≥50 = +++)”. For “35 (VLHSLQTQL; listed as Homo sapiens) [compound 35]”, the “Peptide exchange” value was “++ (≥20% = ++)”. For “36 (SLFGKKYIL; listed as Homo sapiens) [compound 36]”, the “Peptide exchange” value was “++ (≥20% = ++)”. In the case of “37 (VLAPVILML; listed as Homo sapiens) [compound 37]”, the “Peptide exchange” value is reported as “++ (≥20% = ++)”. With “38 (VLLDTILQL; listed as Homo sapiens) [compound 38]” the “Peptide exchange” value was “+++ (≥50 = +++)”. In the case of “39 (YLLNLNHLGL; listed as Homo sapiens) [compound 39]”, the “Peptide exchange” value is reported as “+++ (≥50 = +++)”. With “40 (YIQEHLLQI; listed as Homo sapiens) [compound 40]” the “Peptide exchange” value was “+++ (≥50 = +++)”. In the case of “41 (GLLKTLQKL; listed as Homo sapiens) [compound 41]”, the “Peptide exchange” value is reported as “++ (≥20% = ++)”. For “42 (VILDTGTIQL; listed as Homo sapiens) [compound 42]”, the “Peptide exchange” value was “++ (≥20% = ++)”. With “43 (YLKDELDEL; listed as Homo sapiens) [compound 43]” the “Peptide exchange” value was “+++ (≥50 = +++)”. In the case of “44 (ALFSFVTAL; listed as Homo sapiens) [compound 44]”, the “Peptide exchange” value is reported as “+++ (≥50 = +++)”. In the case of “45 (ALLGIPLTL; listed as Homo sapiens) [compound 45]”, the “Peptide exchange” value is reported as “+++ (≥50 = +++)”. For “46 (GLSEVLVQI; listed as Homo sapiens) [compound 46]”, the “Peptide exchange” value was “+++ (≥50 = +++)”. With “47 (TLAEVRAVQEI; listed as Homo sapiens) [compound 47]” the “Peptide exchange” value was “+++ (≥50 = +++)”. “48 (VVASNIMEV; listed as Homo sapiens) [compound 48]” was tested, and the “Peptide exchange” value was “++ (≥20% = ++)”. With “49 (VLIVEVPGV; listed as Homo sapiens) [compound 49]” the “Peptide exchange” value was “+++ (≥50 = +++)”. In the case of “50 (SLSDHIVLL; listed as Homo sapiens) [compound 50]”, the “Peptide exchange” value is reported as “++ (≥20% = ++)”. In the case of “51 (NLWPMILTL; listed as Homo sapiens) [compound 51]”, the “Peptide exchange” value is reported as “+++ (≥50 = +++)”. With “52 (SILDAVQRV; listed as Homo sapiens) [compound 52]” the “Peptide exchange” value was “++ (≥20% = ++)”. For “53 (FLLEIRQTL; listed as Homo sapiens) [compound 53]”, the “Peptide exchange” value was “++ (≥20% = ++)”. For “54 (ALVAKGLVQA; listed as Homo sapiens) [compound 54]”, the “Peptide exchange” value was “++ (≥20% = ++)”. “55 (YLALILPVL; listed as Homo sapiens) [compound 55]” was tested, and the “Peptide exchange” value was “++ (≥20% = ++)”. With “56 (ILMDFSNSM; listed as Homo sapiens) [compound 56]” the “Peptide exchange” value was “+++ (≥50 = +++)”. “57 (SLQKEILYL; listed as Homo sapiens) [compound 57]” was tested, and the “Peptide exchange” value was “++ (≥20% = ++)”. “58 (FLVDFEQSHL; listed as Homo sapiens) [compound 58]” was tested, and the “Peptide exchange” value was “++++ (≥75% = ++++)”. For “59 (SLKNNVVSV; listed as Homo sapiens) [compound 59]”, the “Peptide exchange” value was “+++ (≥50 = +++)”. “60 (ILWKDIEYV; listed as Homo sapiens) [compound 60]” was tested, and the “Peptide exchange” value was “+++ (≥50 = +++)”. With “61 (SLMGILLRI; listed as Homo sapiens) [compound 61]” the “Peptide exchange” value was “++ (≥20% = ++)”. With “62 (VLAGPAFLVQL; listed as Homo sapiens) [compound 62]” the “Peptide exchange” value was “+++ (≥50 = +++)”. “63 (GLIEDHFDVTV; listed as Homo sapiens) [compound 63]” was tested, and the “Peptide exchange” value was “++ (≥20% = ++)”. In the case of “64 (LLAASVALA; listed as Homo sapiens) [compound 64]”, the “Peptide exchange” value is reported as “++ (≥20% = ++)”. With “65 (IIYGGSVTGA; listed as Homo sapiens) [compound 65]” the “Peptide exchange” value was “++ (≥20% = ++)”. With “66 (TLLKTIIKV; listed as Homo sapiens) [compound 66]” the “Peptide exchange” value was “++ (≥20% = ++)”. “67 (LLDVLAPLV; listed as Homo sapiens) [compound 67]” was tested, and the “Peptide exchange” value was “++ (≥20% = ++)”. “68 (YVLTQPPSV; listed as Homo sapiens) [compound 68]” was tested, and the “Peptide exchange” value was “++ (≥20% = ++)”. With “69 (ILADLLPSL; listed as Homo sapiens) [compound 69]” the “Peptide exchange” value was “++ (≥20% = ++)”. In the case of “70 (SLTALRLLL; listed as Homo sapiens) [compound 70]”, the “Peptide exchange” value is reported as “++ (≥20% = ++)”. In the case of “71 (ALDGHLYAV; listed as Homo sapiens) [compound 71]”, the “Peptide exchange” value is reported as “+++ (≥50 = +++)”. In the case of “72 (YSLEKVFGI; listed as Homo sapiens) [compound 72]”, the “Peptide exchange” value is reported as “++ (≥20% = ++)”. For “73 (GLDGIPFTV; listed as Homo sapiens) [compound 73]”, the “Peptide exchange” value was “+++ (≥50 = +++)”. “74 (GLFHKQVTV; listed as Homo sapiens) [compound 74]” was tested, and the “Peptide exchange” value was “+++ (≥50 = +++)”. For “75 (FLIKSINLV; listed as Homo sapiens) [compound 75]”, the “Peptide exchange” value was “+++ (≥50 = +++)”. “76 (VLADDHLIEV; listed as Homo sapiens) [compound 76]” was tested, and the “Peptide exchange” value was “++ (≥20% = ++)”. “77 (SLIKHKIML; listed as Homo sapiens) [compound 77]” was tested, and the “Peptide exchange” value was “++ (≥20% = ++)”. “78 (ALLDTVVQA; listed as Homo sapiens) [compound 78]” was tested, and the “Peptide exchange” value was “++ (≥20% = ++)”. In the case of “79 (ALADIVWRA; listed as Homo sapiens) [compound 79]”, the “Peptide exchange” value is reported as “+++ (≥50 = +++)”. For “80 (KLASMLETL; listed as Homo sapiens) [compound 80]”, the “Peptide exchange” value was “+++ (≥50 = +++)”.
